Results published in publication PMC12888920, “MMP-9 regulates disulphide isomerase activity of TGM2 to enhance fusion glycoprotein-mediated syncytium formation of respiratory syncytial virus” (Protein & Cell, 2025).

Target: T1, purified human MMP-9 (human, UniProt P14780 20-707)
T1 construct: human matrix metalloproteinase 9; May be the same protein as MMP-9-6x His; Methods are in the supplementary file; source: purified
Experiment: BLI; ForteBio Octet; who was immobilised and buffer not told in the text shown; three biological replicates
Settings: both partners purified

T1 sequence (P14780 20-707): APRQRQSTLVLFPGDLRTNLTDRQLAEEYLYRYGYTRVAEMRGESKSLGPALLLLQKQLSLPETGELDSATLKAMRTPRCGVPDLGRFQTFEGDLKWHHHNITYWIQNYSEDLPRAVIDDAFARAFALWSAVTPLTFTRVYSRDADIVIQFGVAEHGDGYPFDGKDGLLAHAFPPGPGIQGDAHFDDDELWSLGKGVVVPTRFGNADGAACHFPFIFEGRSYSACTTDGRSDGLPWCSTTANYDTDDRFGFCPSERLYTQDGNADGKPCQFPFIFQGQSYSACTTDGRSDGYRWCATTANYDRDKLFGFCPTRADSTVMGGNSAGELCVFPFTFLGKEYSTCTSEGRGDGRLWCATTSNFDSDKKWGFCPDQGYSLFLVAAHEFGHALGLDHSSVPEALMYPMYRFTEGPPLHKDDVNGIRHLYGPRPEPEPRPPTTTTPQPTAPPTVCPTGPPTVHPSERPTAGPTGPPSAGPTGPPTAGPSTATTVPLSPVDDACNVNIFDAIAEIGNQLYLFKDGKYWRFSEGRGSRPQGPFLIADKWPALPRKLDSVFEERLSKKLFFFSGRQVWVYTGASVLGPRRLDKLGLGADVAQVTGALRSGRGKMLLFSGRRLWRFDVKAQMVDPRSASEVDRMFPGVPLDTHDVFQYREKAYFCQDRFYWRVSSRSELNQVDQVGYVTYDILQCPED

B1: purified human TGM2 (transglutaminase 2) (enzyme, UniProt P21980 1-687, looked up)
chain: MAEELVLERCDLELETNGRDHHTADLCREKLVVRRGQPFWLTLHFEGRNYEASVDSLTFSVVTGPAPSQEAGTKARFPLRDAVEEGDWTATVVDQQDCTLSLQLTTPANAPIGLYRLSLEASTGYQGSSFVLGHFILLFNAWCPADAVYLDSEEERQEYVLTQQGFIYQGSAKFIKNIPWNFGQFEDGILDICLILLDVNPKFLKNAGRDCSRRSSPVYVGRVVSGMVNCNDDQGVLLGRWDNNYGDGVSPMSWIGSVDILRRWKNHGCQRVKYGQCWVFAAVACTVLRCLGIPTRVVTNYNSAHDQNSNLLIEYFRNEFGEIQGDKSEMIWNFHCWVESWMTRPDLQPGYEGWQALDPTPQEKSEGTYCCGPVPVRAIKEGDLSTKYDAPFVFAEVNADVVDWIQQDDGSVHKSINRSLIVGLKISTKSVGRDEREDITHTYKYPEGSSEEREAFTRANHLNKLAEKEETGMAMRIRVGQSMNMGSDFDVFAHITNNTAEEYVCRLLLCARTVSYNGILGPECGTKYLLNLNLEPFSEKSVPLCILYEKYRDCLTESNLIKVRALLVEPVINSYLLAERDLYLENPEIKIRILGEPKQKRKLVAEVSLQNPLPVALEGCTFTVEGAGLTEEQKTVEIPDPVEAGEEVKVRMDLLPLHMGLHKLVVNFESDKLKAVKGFRNVIIGPA
notes: human transglutaminase 2; the purified protein's band is called full-length TGM2 (100 kDa) in the cleavage assay; The printed 100 kDa for full-length TGM2 is larger than the native protein; also called recombinant TGM2; source: purified
Kd: 1980 nM
